Reference: patent publication US20260139017A1, “COMPOSITIONS AND METHODS USING REELIN IN ALZHEIMER'S DISEASE” (The General Hospital Corporation, priority 2022, published 2026)
“Also recorded” adds a separate entry of the source.

Legend:
NRP1 = target: T1, NRP1 (Homo sapiens, UniProt O14786); experiment: Bio-layer interferometry (BLI) of CTR-RELN-NRP-1 interactions; assay type: binding; settings: immobilized biotinylated NRP1
T1 construct: purchased R&D 3870-N1-025
T1 sequence (O14786 22-644 isoform O14786-2 limits assumed): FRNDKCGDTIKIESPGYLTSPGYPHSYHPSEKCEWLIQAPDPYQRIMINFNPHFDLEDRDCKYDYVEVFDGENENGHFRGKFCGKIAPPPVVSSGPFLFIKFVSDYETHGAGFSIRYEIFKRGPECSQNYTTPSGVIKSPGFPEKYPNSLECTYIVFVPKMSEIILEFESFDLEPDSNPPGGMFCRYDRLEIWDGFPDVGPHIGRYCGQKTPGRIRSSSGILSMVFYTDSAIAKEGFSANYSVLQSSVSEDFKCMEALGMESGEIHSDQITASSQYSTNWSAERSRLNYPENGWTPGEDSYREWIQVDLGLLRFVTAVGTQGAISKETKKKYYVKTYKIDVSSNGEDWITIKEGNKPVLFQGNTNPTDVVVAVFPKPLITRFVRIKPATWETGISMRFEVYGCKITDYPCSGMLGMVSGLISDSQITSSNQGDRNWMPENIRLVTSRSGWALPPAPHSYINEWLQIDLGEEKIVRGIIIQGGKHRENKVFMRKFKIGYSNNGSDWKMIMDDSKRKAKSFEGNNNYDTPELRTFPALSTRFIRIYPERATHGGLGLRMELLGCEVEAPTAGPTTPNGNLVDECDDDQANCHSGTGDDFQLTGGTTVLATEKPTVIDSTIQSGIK
Experimental: (§1) Bio-layer interferometry (BLI) was additionally used to assess NRP1-protein kinetics at 30° C. and 1000 rpm agitation. 1 mg/mL NRP1 (R&D 3870-N1-025) was biotinylated at a 1:2 molar ratio, desalted, and immobilized on the SA biosensor tip (Pall ForteBio) surface. This was followed by 1) 180 seconds baseline buffer diluent, 2) loading of the ligand (NRP1), 3) 180 seconds baseline buffer diluent, 4) 240 seconds association (analyte), and 5) 300 seconds disassociation in assay buffer. Assay buffer: SD Buffer (pH7.4 PBS, 0.05% tween20, 0.01% BSA).
The experimental data were fit with the 1:1 binding model and analyzed with global fitting using Octet Data Analysis software to calculate KD.
as §1, with “was” for “was additionally”, “agitation using previously published methods.” for “agitation.”

SH-SY5Y cells = experiment: Lactate dehydrogenase assay in SH-SY5Y cells treated with oligomeric Tau; assay type: cell-based
Experimental: A lactate dehydrogenase assay was performed in SH-SY5Y cells treated 24 h with pre-formed oligomeric Tau (oTau) either alone or in the presence of C-term RELN WT (184I). The lactate dehydrogenase assay was performed as follows. 100 k neuroblastoma (SH-SY5Y, ATCC) cells/well were plated in 96-well TC treated plates in growth media (DMEM/F12, Gibco, 10% heat-inactivated FBS, R&D, 200 ug normocin) and allowed to attach and grow overnight. Next day, test compounds were allowed to thaw on wet ice. Phenol-free and serum free DMEM/F12 no serum no antibiotic media was warmed and a 50 mL aliquot was sterile filtered (0.22 um) as test media. In TC cabinet, thawed test compounds were mixed via pipetting then added to final concentration for each test condition in filtered test media and mixed through pipetting. Test conditions were allowed to pre-incubate for 15 mins at RT in TC cabinet. Wells were gently aspirated and gently washed with 200 uL prewarmed Test media, then gently aspirated and 100 μL of test conditions were added and allowed to incubate in TC incubator at 5% CO2 for 21 hrs. LDH performed using Roche kit according to manufacturer's protocol.

B1: pfcn-huIgG2-C-termH3447WT (protein)
chain: MYRMQLLSCIALSLALVTNSAPLERKSSVECPPCPAPPVAGPSVFLFPPKPKDTLMISRTPEVTCVVVDVSHEDPEVQFNWYVDGVEVHNAKTKPREEQFNSTFRVVSVLTVVHQDWLNGKEYKCKVSNKGLPAPIEKTISKTKGQPREPQVYTLPPSREEMTKNQVSLTCLVKGFYPSDIAVEWESNGQPENNYKTTPPMLDSDGSFFLYSKLTVDKSRWQQGNVFSCSVMHEALHNHYTQKSLSLSPGARTSTRKQNYMMNFSRQHGLRHFYNRRRRSLRRYP
ka (NRP1): 9400 M⁻¹ s⁻¹
kd (NRP1): 0.00573 s⁻¹
cytotoxicity of construct (LDH) (SH-SY5Y cells): did not show any cytotoxicity
oligomeric Tau-induced cytotoxicity (LDH) (SH-SY5Y cells; oTau with construct): reduction of oTau-derived cytotoxicity; also recorded: Reduced oligomeric Tau-induced cytotoxicity
